Test results from patent US20220380463A1 (Adimab, published 2022).
Substitutions are numbered along the chain they refer to.

B1: SAD10319_P01_E02 (ADI-57304) (antibody, V domains shown)
VH: QVQLVQSGAEVKKPGASVKVSCKASGYTFTSDFMHWVRQAPGQRLEWMGWINPATGATKYSQKFQGRVTITRDTSASTAYMELSSLRSEDTAVYYCARDAYGHYFYDHWGQGTLVTVSS
VL: DIVMTQSPDSLAVSLGERATINCKSSQSLLNARTGKNYLAWYQQKPGQPPKLLIYWASTRESGVPDRFSGSGSGTDFTLTISSLQAEDVAVYYCKQSYSRRTFGGGTKVEIK
notes: IgG; also called Ab240
B2: SAD10319_P03_B09 (ADI-48639) (antibody, V domains shown)
VH: B1 VH with S31E, D32Y, F33D, N52D, P53A, A54G, K59V, H103R
VL: B1 VL
notes: IgG; also called Ab24
B3: SAD10320_P02_G06 (ADI-57371) (antibody, V domains shown)
VH: QVQLVQSGAEVKKPGASVKVSCKASGFNIKDYYMHWVRQAPGQRLDWMGWIDLENANTIYDAKFQGRVTITRDTSASTAYMELSSLRSEDTAVYYCARDAYGRHFYDVWGQGTLVTVSS
VL: B1 VL with G35R, K36T
notes: IgG; also called Ab88
B4: LAD9955_P01_G02 (ADI-57439) (antibody, V domains shown)
VH: B3 VH with D46E, H104Y
VL: B1 VL with N31H, Y38H
notes: IgG; also called Ab170
B5: SAD10319_P04_B10 (ADI-57332) (antibody, V domains shown)
VH: B1 VH with D32T, W50F, N52D, P53A, A54G
VL: B1 VL
notes: IgG; also called Ab30
B6: SAD10320_P01_A03 (ADI-57353) (antibody, V domains shown)
VH: B3 VH with D46E, A100H, Y101R, H104Y
VL: B1 VL with Y98S, S99H
notes: IgG; also called Ab60
B7: SAD10319_P04_G11 (ADI-48641) (antibody, V domains shown)
VH: QVQLVQSGAEVKKPGASVKVYCKASGYTFTTYEMHWVRQAPGQRLEWMGSINAGDANTKYSQKFQGRVTITRDTSASTAYMELSSLRSEDTAVYYCARDAYHHYFYDVWGQGTLVTVSS
VL: B1 VL
notes: IgG; also called Ab39
B8: SAD10319_P03_E07 (ADI-48635) (antibody, V domains shown)
VH: B1 VH with T30E, D32Y, F33D, N52D, P53A, A54G, K59T, G102H, H108V
VL: B1 VL
notes: IgG; also called Ab17
B9: SAD10319_P03_A08 (ADI-48636) (antibody, V domains shown)
VH: B1 VH with S31D, D32Y, F33D, N52D, P53A, A54G, A57L, A100H, H108V
VL: B1 VL
notes: IgG; also called Ab230
B10: SAD10319_P02_F06 (ADI-57324) (antibody, V domains shown)
VH: B1 VH with T30L, D32Y, F33A, W47R, A54S, K59D, H108V
VL: B1 VL
notes: IgG; also called Ab13
B11: SAD10319_P04_E12 (ADI-48642) (antibody, V domains shown)
VH: QVQLVQSGAEVKKPGASVKVSCKASGYTFTSYPMHWVRQAPGQRLEWMGWIDAGTGLTTYSQKFQGRVTITRDTSASTAYMELSSLRSEDTAVYYCARDHYHRYFYDMWGQGTLVTVSS
VL: B1 VL
notes: IgG; also called Ab43
B12: SAD10319_P02_A06 (ADI-57320) (antibody, V domains shown)
VH: B11 VH with T30D, S31A, P33A, L57A, T59K, H102G, R103H, M108V
VL: B1 VL
notes: IgG; also called Ab8
B13: SAD10319_P02_E06 (ADI-57323) (antibody, V domains shown)
VH: B1 VH with T30A, S31D, D32Y, F33A, E46A, A54H, K59F, H103R
VL: B1 VL
notes: IgG; also called Ab12
B14: SAD10319_P02_C06 (ADI-57322) (antibody, V domains shown)
VH: B1 VH with D32Y, F33A, A54V, K59V, H108V
VL: B1 VL
notes: IgG; also called Ab10
B15: SAD10319_P02_E04 (ADI-57311) (antibody, V domains shown)
VH: B11 VH with T30E, P33Y, W47R, W50S, D52V, L57A, T59K, H102G, M108V, L114P
VL: B1 VL
notes: IgG; also called Ab252
B16: SAD10319_P03_G08 (ADI-48638) (antibody, V domains shown)
VH: B1 VH with T30S, D32Y, F33D, N52D, P53A, A54G, A57F
VL: B1 VL
notes: IgG; also called Ab22
B17: SAD10319_P03_E09 (ADI-48640) (antibody, V domains shown)
VH: B11 VH with T30L, P33D, L57A, H100A, R103H, M108V
VL: B1 VL
notes: IgG; also called Ab26
B18: LAD9954_P01_B02 (ADI-57438) (antibody, V domains shown)
VH: B3 VH with D46E, H104Y
VL: B1 VL with N31H, K36H
notes: IgG; also called Ab168
B19: SAD10320_P01_E02 (ADI-57349) (antibody, V domains shown)
VH: B3 VH with D46A
VL: B1 VL
notes: IgG; also called Ab55
B20: SAD10319_P02_F04 (ADI-57312) (antibody, V domains shown)
VH: B1 VH with T30D, D32Y, F33T, W50Y, A54D, K59Y, G102H, H108V
VL: B1 VL
notes: IgG; also called Ab253
B21: LAD9959_P01_E04 (ADI-57441) (antibody, V domains shown)
VH: B3 VH with D46E, H104Y
VL: B1 VL with G35H, K36H
notes: IgG; also called Ab172
B22: SAD10320_P02_F06 (ADI-57370) (antibody, V domains shown)
VH: B3 VH with D46A, H104F, F105H
VL: B1 VL with T34P
notes: IgG; also called Ab87
B23: SAD10319_P04_G10 (ADI-57334) (antibody, V domains shown)
VH: B1 VH with S31D, D32Y, F33Y, K59A, Y104H, H108V
VL: B1 VL
notes: IgG; also called Ab32
B24: SAD10319_P02_H06 (ADI-48633) (antibody, V domains shown)
VH: B1 VH with S31A, D32Y, F33V, W50S, N52D, P53A, A54G, A57N
VL: B1 VL
notes: IgG; also called Ab16
B25: SAD10319_P03_C07 (ADI-48634) (antibody, V domains shown)
VH: B11 VH with T30E, P33D, L57A, H100A, R103H, M108V
VL: B1 VL
notes: IgG; also called Ab17
B26: SAD10319_P03_E08 (ADI-48637) (antibody, V domains shown)
VH: QVQLVQSGAEVKKPGASVKVSCKASGYTFNDYAMHWVRQAPGQRLEWMGYINGTGATVYSQKFQGRVTITRDTSASTAYMELSSLRSEDTAVYYCARDAYHHYFYDVWSQGTLVTVSS
VL: B1 VL
notes: IgG; also called Ab21
B27: SAD10320_P01_B03 (ADI-57354) (antibody, V domains shown)
VH: B3 VH with D46E, E89D, A100Q, Y101H, H104Y
VL: B1 VL
notes: IgG; also called Ab61
B28: LAD9953_P01_H01 (ADI-57437) (antibody, V domains shown)
VH: B3 VH with D46E, H104Y
VL: B1 VL with N31H, G35H
notes: IgG; also called Ab167

How the values were obtained:
[1] = target: T1, Cynomolgus CD3εδ Fc heterodimer (Cy CD3ε Fc / CD3δ Fc-HIS) (cynomolgus, UniProt Q95LI8 22-100); assay: BLI (Octet), IgG on AHC sensor, pH 7.4
T1 chain 1: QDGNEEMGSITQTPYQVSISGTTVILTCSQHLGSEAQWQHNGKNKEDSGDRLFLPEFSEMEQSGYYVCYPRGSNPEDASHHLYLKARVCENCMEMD
T1 chain 2: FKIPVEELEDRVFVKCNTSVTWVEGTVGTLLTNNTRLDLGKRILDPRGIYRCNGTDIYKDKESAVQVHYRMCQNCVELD

[2] = target: T1, Cynomolgus CD3εδ Fc heterodimer (Cy …); assay: BLI (Octet), IgG on AHC sensor, pH 6.0
[3] = target: T2, human CD3 on CD3+ Jurkat cells (human, UniProt P07766 23-207); assay: flow cytometry on CD3+ Jurkat cells, ratio of MFI at pH 6.0 to pH 7.4
T2 construct: whole, on cells; Native CD3 complex on cells; the other CD3 chains are not specified for this assay; also called Human CD3+ Jurkat
Procedure, shortened: (§1)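 Jurkat cells incubated 20 min on ice with 100 nM yeast-produced IgG in PBS + 0.1% BSA at pH 6.0 or pH 7.4, with all washes and staining at the same pH. Bound antibody detected with anti-human IgG-RPE, dead cells excluded by propidium iodide; MFI measured by flow cytometry.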

[4] = target: T2, human CD3 on CD3+ Jurkat cells; assay: flow cytometry, 100 nM IgG on CD3+ Jurkat cells, pH 7.4
Procedure, shortened: as §1

[5] = target: T2, human CD3 on CD3+ Jurkat cells; assay: flow cytometry, 100 nM IgG on CD3+ Jurkat cells, pH 6.0
Procedure, shortened: as §1

T2 sequence (P07766 23-207): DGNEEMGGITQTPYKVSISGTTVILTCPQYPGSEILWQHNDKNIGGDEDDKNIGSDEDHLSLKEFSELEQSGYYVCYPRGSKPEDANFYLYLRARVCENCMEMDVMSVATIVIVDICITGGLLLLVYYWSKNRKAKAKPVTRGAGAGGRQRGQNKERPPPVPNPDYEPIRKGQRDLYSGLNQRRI

| Binder | Kd [1] [nM] | koff [1] [s⁻¹] | kon [1] [M⁻¹ s⁻¹] | koff [2] [s⁻¹] | MFI pH 6.0/MFI pH 7.4 [3] | MFI pH 7.4 [4] [MFI] | MFI pH 6.0 [5] [MFI] |
| --- | --- | --- | --- | --- | --- | --- | --- |
| B1 | 145 | 0.0355 | 245000 | 0.0248 | – | – | – |
| B2 | – | – | – | – | 16.5 | 55 | 897 |
| B3 | 64.8 | 0.0219 | 338000 | 0.00387 | – | – | – |
| B4 | 127 | 0.0187 | 147000 | 0.0282 | – | – | – |
| B5 | 58.8 | 0.0199 | 338000 | 0.0127 | – | – | – |
| B6 | 78.4 | 0.0174 | 222000 | 0.0271 | – | – | – |
| B7 | – | – | – | – | 1.1 | 52 | 59 |
| B8 | – | – | – | – | 11.6 | 54 | 623 |
| B9 | – | – | – | – | 25.9 | 35 | 897 |
| B10 | 134 | 0.0331 | 247000 | 0.0122 | – | – | – |
| B11 | – | – | – | – | 6.1 | 55 | 332 |
| B12 | 30.2 | 0.0115 | 383000 | 0.0327 | – | – | – |
| B13 | 60.6 | 0.0267 | 440000 | 0.00251 | – | – | – |
| B14 | 51.3 | 0.0255 | 496000 | 0.023 | – | – | – |
| B15 | 64.1 | 0.0208 | 324000 | 0.0215 | – | – | – |
| B16 | – | – | – | – | 23.8 | 84 | 2000 |
| B17 | – | – | – | – | 13.8 | 56 | 772 |
| B18 | 33.9 | 0.0107 | 316000 | 0.0303 | – | – | – |
| B19 | 68.6 | 0.0208 | 304000 | 0.00585 | – | – | – |
| B20 | 117 | 0.0301 | 257000 | 0.0317 | – | – | – |
| B21 | 89.6 | 0.0189 | 210000 | 0.00174 | – | – | – |
| B22 | 141 | 0.0166 | 118000 | 0.017 | – | – | – |
| B23 | 62.6 | 0.0182 | 291000 | 0.015 | – | – | – |
| B24 | 78 | 0.0171 | 220000 | 0.0188 | – | – | – |
| B25 | – | – | – | – | 14.7 | 44 | 651 |
| B26 | – | – | – | – | 3.3 | 73 | 244 |
| B27 | 75.1 | 0.0159 | 212000 | 0.0204 | – | – | – |
| B28 | 86.7 | 0.0209 | 242000 | 0.0176 | – | – | – |
